Here are results for one molecule from publication PMC7485985 (2020).

The target in the test is MBP-OsMYC2 (rice, UniProt Q336P5 1-699). Description: SPR. (Surface plasmon resonance follows binding to a sensor surface in real time, without labels.)
Sequence of MBP-OsMYC2 (Q336P5 whole entry): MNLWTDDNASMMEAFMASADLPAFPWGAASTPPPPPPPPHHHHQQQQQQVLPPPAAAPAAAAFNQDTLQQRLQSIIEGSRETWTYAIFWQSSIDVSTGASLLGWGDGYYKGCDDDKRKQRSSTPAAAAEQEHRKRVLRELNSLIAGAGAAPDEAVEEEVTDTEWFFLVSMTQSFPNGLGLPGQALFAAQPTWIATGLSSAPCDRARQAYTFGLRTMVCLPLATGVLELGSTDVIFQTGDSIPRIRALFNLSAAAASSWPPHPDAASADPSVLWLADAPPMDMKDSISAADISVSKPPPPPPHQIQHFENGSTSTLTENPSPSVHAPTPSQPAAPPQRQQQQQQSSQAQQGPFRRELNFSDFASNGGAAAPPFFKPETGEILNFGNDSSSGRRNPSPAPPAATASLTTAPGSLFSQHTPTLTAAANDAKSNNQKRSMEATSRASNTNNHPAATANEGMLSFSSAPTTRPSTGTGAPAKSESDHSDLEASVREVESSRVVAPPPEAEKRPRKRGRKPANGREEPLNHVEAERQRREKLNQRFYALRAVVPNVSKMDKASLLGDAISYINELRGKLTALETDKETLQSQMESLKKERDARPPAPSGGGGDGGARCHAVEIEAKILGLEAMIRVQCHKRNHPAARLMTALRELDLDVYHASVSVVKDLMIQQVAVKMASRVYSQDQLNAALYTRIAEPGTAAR

B1: GST-OsGSK2 (enzyme)
chain: MDQPAPAPEPMLLDAQPPAAVACDKKQQEGEAPYAEGNDAVTGHIISTTIGGKNGEPKRTISYMAERVVGTGSFGIVFQAKCLETGETVAIKKVLQDRRYKNRELQLMRAMDHPNVISLKHCFFSTTSRDELFLNLVMEYVPETLYRVLKHYSNANHRMPLIYVKLYMYQLFRGLAYIHTVPGVCHRDVKPQNVLVDPLTHQVKLCDFGSAKTLVPGEPNISYICSRYYRAPELIFGATEYTTSIDIWSAGCVLAELLLGQPLFPGESAVDQLVEIIKVLGTPTREEIRCMNPNYTEFRFPQIKAHPWHKVFHKRMPPEAIDLASRLLQYSPSLRCTALDACAHPFFDELREPNARLPNGRPFPPLFNFKHELANSSQELISRLIPEHVRRQATHNFFNTGS
Turning to B1, the Kd (as a rule, a measure of binding affinity in units of concentration) is 40.4 nM.
